# Measurements as given in patent publication US7413866B2, “Compositions and methods for detecting and treating diseases and conditions related to chemokine receptors” (ChemoCentryx, Inc., priority 2001, dated 2008).
# T1: CCR1 (Homo sapiens, UniProt P32246)
# T1 sequence (P32246 1-355): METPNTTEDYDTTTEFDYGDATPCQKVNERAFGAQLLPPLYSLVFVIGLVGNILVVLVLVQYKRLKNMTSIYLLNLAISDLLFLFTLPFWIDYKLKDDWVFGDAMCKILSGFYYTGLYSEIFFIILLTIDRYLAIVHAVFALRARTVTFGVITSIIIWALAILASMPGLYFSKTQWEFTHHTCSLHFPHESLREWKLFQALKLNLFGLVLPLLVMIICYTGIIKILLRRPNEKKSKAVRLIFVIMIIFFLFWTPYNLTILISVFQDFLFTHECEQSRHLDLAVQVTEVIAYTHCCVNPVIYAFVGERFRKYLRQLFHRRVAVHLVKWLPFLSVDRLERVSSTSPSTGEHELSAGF
# T2: CCR1 expressed on NSO transfectants (human, UniProt P32246 1-355)
# T2 construct: CCR1 transfectant of NSO cells; also called NSO-CCR1
# T2 sequence: T1 sequence (P32246 1-355)
# T3: CCR1 expressed on HEK293 transfectants (human, UniProt P32246 1-355)
# T3 construct: CCR1 cDNA transfected into HEK293 cells; also called HEK293-CCR1
# T3 sequence: T1 sequence (P32246 1-355)
# T4: CCR1 on monocytes (UniProt P32246 1-355)
# T4 chain: T1 sequence (P32246 1-355)
# T5: CCR1 on THP-1 cells (acute monocytic leukemia) (UniProt P32246 1-355)
# T5 chain: T1 sequence (P32246 1-355)
# T6: CCR1 expressed on NSO transfectants (UniProt P32246 1-355)
# T6 chain: T1 sequence (P32246 1-355)
# T7: CCR1 expressed on HEK293 transfectants (UniProt P32246 1-355)
# T7 chain: T1 sequence (P32246 1-355)
# B1: mMIP-1γ: CCR1 ligand (protein)
# chain: QITHATETKEVQSSLKAQQGLEIEMFHMGFQDSSDCCLSYNSRIQCSRFIGYFPTSGGCTRPGIIFISKRGFQVCANPSDRRVQRCIERLEQNSQPRTYKQ
# B2: HHV8 vMIP-II: viral recombinant chemokine (protein)
# chain: LGASWHRPDKCCLGYQKRPLPQVLLSSWYPTSQLCSKPGVIFLTKRGRQVCADKSKDWVKKLMQQLPVTAR
# B3: CKβ8 (1-99) (ligand)
# chain: RVTKDAETEFMMSKLPLENPVLLDRFHATSADCCISYTPRSIPCSLLESYFETNSECSKPGVIFLTKKGRRFCANPSDKQVQVCMRMLKLDTRIKTRKN
# notes: The numbers 1-99 count on the mature chemokine, not on the precursor; also called CCL23 (99-amino acid form)
# B4: human I-TAC (ligand, UniProt O14625 22-94, looked up)
# chain: FPMFKRGRCLCIGPGVKAVKVADIEKASIMYPSNNCDKIEVIITLKENKGQRCLNPKSKQARLIIKKVERKNF
# modifications: 125I label where used as the radioligand
# B5: Leukotactin (ligand)
# chain: SFHFAADCCTSYISQSIPCSLMKSYFETSSECSKPGVIFLTKKGRQVCAKPSGPGVQDCMKKLKPYSI
# B6: MIP-1α (ligand)
# chain: ADTPTACCFSYTSRQIPQNFIADYFETSSQCSKPGVIFLTKRSRQVCADPSEEWVQKYVSDLELSA
# modifications: also: 125I label where used as radioligand
# B7: MIP-1α: CC chemokine, CCR1 ligand (protein)
# chain: B6 chain
# B8: mI-TAC: murine recombinant chemokine I-TAC (protein)
# chain: FLMFKQGRCLCIGPGMKAVKMAEIEKASVIYPSNGCDKVEVIVTMKAHKRQRCLDPRSKQARLIMQAIEKKNFLRRQNM
# Experiments:
# [1] = target: T8, CXCR4 on MCF-7 cells (Homo sapiens, UniProt P25106); test: 125I I-TAC competition binding on MCF-7 cells
# T8 construct: host or cells: MCF-7 (whole cells)
# Source text: (§1) Binding Analysis. We employed our technique, DisplaceMax, to examine the global profile of chemokine ligand interaction with CXCR4 on MCF-7 and CEM-NKr cells. This technology employs expanded, efficiency-maximized radioligand binding using filtration protocols as described previously (Kledal T N, et al. Science 277:1656-1659 (1997); Dairaghi, et al. J Biol Chem 274:21569-74 (1999); Gosling, J. et al. J Immunol 164:2851-6 (2000)). […] Where indicated, anti-CXCR4 antibodies or isotype controls were included in the binding reactions. In these experiments cells were pre-incubated with the indicated concentration of antibody for 30 min at 4° C. prior to the addition of radiolabeled chemokine. Small molecules were included in some assays, where indicated. In these assays the compound was added to the plate to the indicated concentration followed by the addition of radiolabeled chemokine. All assays were then incubated for 3 hrs at 4° C. with gentle agitation. […] Scintillant (MicroScint 10, Packard) was added to the wells, and the filters were counted in a Packard Topcount scintillation counter. Data were analyzed and plotted using Prism (GraphPad Prism version 3.0a for Macintosh, GraphPad Software).
# [2] = target: CCR1 on monocytes (UniProt P32246); test: 125I MIP-1α competition binding on cells; monocytes; conditions: ligand
# [3] = target: CCR1 on THP-1 cells (acute monocytic leukemia) (UniProt P32246); test: 125I MIP-1α competition binding on cells; THP-1 cells; conditions: ligand
# [4] = target: CCR1 expressed on NSO transfectants (UniProt P32246); test: 125I MIP-1α competition binding on cells; NSO-CCR1 cells; conditions: ligand
# [5] = target: CCR1 expressed on HEK293 transfectants (UniProt P32246); test: 125I MIP-1α competition binding on cells; HEK293-CCR1 cells; conditions: ligand
# [6] = target: T9, CXCR4 on MCF-7 cells (Homo sapiens); test: 125I SDF-1α competition binding on MCF-7 cells; conditions: cold competitor array
# T9 construct: host or cells: MCF-7 (whole cells)
# Source text: (§2) Binding Analysis. We employed our technique, DisplaceMax, to examine the global profile of chemokine ligand interaction with CXCR4 on MCF-7 and CEM-NKr cells. This technology employs expanded, efficiency-maximized radioligand binding using filtration protocols as described previously (Kledal T N, et al. Science 277:1656-1659 (1997); Dairaghi, et al. J Biol Chem 274:21569-74 (1999); Gosling, J. et al. J Immunol 164:2851-6 (2000)). […] Where indicated, anti-CXCR4 antibodies or isotype controls were included in the binding reactions. In these experiments cells were pre-incubated with the indicated concentration of antibody for 30 min at 4° C. prior to the addition of radiolabeled chemokine. Small molecules were included in some assays, where indicated. In these assays the compound was added to the plate to the indicated concentration followed by the addition of radiolabeled chemokine. All assays were then incubated for 3 hrs at 4° C. with gentle agitation. Following incubation in all binding assays, reactions were aspirated onto PEI-treated GF/B glass filters (Packard) using a cell harvester (Packard) and washed twice (25 mM HEPES, 500 mM NaCl, 1 mM CaCl2, 5 mM MgCl2, adjusted to pH 7.1). Scintillant (MicroScint 10, Packard) was added to the wells, and the filters were counted in a Packard Topcount scintillation counter. Data were analyzed and plotted using Prism (GraphPad Prism version 3.0a for Macintosh, GraphPad Software).
# [7] = target: T8, CXCR4 on MCF-7 cells; test: 125I SDF-1α competition binding on MCF-7 cells
# Source text: as §2
# [8] = target: T10, CXCR4 on E13 fetal liver cells (Mus musculus); test: Radiolabeled human-SDF-1 binding competition on E13 fetal liver cells; conditions: wildtype mouse embryo E13 fetal liver cells
# T10 construct: from tissue; host or cells: fetal liver cells of wildtype mouse embryos, E13
# [9] = system: MDA MB-231 cells; test: Matrigel invasion assay; type: cell-based, human; conditions: breast tumor cells, 22 hrs
# Method: Invasion Assay. Invasion assays were performed as per the manufacturer's instructions. Briefly, chemokines were diluted in HBSS (Life Technologies, Gaithersburg, Md.) supplemented with 0.1% bovine albumin (Sigma Chemical Company, St. Louis, Mo.) and added to the lower wells of BD BioCoat Matrigel Invasion chambers (BD Biosciences, Bedford, Mass.). MDA MB-231 cells were added to the matrigel coated inserts and the plates were incubated at 37° C. in a humidified incubator at a 5% CO2/air mixture for 22 hrs. Following this incubation, the inserts were transferred to a new plate and the media in the inserts was removed. Using a cotton swab the matrigel plug was removed from each well. The filters were then stained using Protocol Hema staining system (Biochemical Sciences, Inc., Swedesboro, N.J.). Invading cells were examined under a Nikon Elipse E800 (Nikon, Inc., Melville, N.Y.) microscope with a 40× lens. Cells were counted in 5 fields of view of each filter. Data represent the mean of 5 fields of view from each filter tested in triplicate.
# [10] = system: tumor cells expressing the tumor correlated form of CXCR4; test: Serum starvation apoptosis of tumor cells; type: cell-based; conditions: serum starved overnight, compared to untreated controls
# [11] = target: T11, CXCR4 on E17 fetal liver cells (Mus musculus, UniProt P70658); test: SDF-1 mediated calcium mobilization in E17 fetal liver cells; type: cell-based; conditions: wildtype mouse embryo E17 fetal liver cells
# T11 construct: the E17 fetal liver cells also express CXCR4; from tissue; host or cells: fetal liver cells of wildtype mouse embryos, E17
# [12] = target: T1, CCR1; test: Intracellular Ca2+ mobilization via CCR1; type: cell-based; design: endogenous in cells; host or cells: THP-1, monocytes, neutrophils, immature DC (endogenous); also HEK293-CCR1 and NSO-CCR1 transfectants
# [13] = target: T12, CXCR4 on CEM-NKr cells (Homo sapiens, UniProt P61073); test: 125I SDF-1α competition binding on CEM-NKr cells; conditions: cold competitor array
# T12 construct: host or cells: CEM-NKr (whole cells)
# Source text: as §1
# [14] = target: T1, CCR1; test: CCR1 mediated cell migration; type: cell-based
# [15] = target: T2, CCR1 expressed on NSO transfectants; test: competition against ^125I MIP-1α on NSO-CCR1 cells
# [16] = target: T3, CCR1 expressed on HEK293 transfectants; test: competition against ^125I MIP-1α on HEK293-CCR1 cells
# [17] = target: T4, CCR1 on monocytes; test: 125I MIP-1α competition binding on cells; monocytes
# [18] = target: T5, CCR1 on THP-1 cells (acute monocytic …); test: 125I MIP-1α competition binding on cells; THP-1 cells
# [19] = target: CXCR4 as expressed on breast tumor cells (MCF-7, MDA MB-231) (human) (UniProt P61073); test: homologous competition against ^125I I-TAC on MCF-7 cells, medium alone
# [20] = target: CXCR4 as expressed on breast tumor cells (MCF-7, MDA MB-231) (human) (UniProt P61073); test: homologous competition against ^125I I-TAC on MCF-7 cells pre-incubated with excess MIG (~175 nM)
# [21] = target: T6, CCR1 expressed on NSO transfectants; test: 125I MIP-1α competition binding on cells; NSO-CCR1 cells
# [22] = target: T7, CCR1 expressed on HEK293 transfectants; test: 125I MIP-1α competition binding on cells; HEK293-CCR1 cells
# T8 sequence (P25106 whole entry): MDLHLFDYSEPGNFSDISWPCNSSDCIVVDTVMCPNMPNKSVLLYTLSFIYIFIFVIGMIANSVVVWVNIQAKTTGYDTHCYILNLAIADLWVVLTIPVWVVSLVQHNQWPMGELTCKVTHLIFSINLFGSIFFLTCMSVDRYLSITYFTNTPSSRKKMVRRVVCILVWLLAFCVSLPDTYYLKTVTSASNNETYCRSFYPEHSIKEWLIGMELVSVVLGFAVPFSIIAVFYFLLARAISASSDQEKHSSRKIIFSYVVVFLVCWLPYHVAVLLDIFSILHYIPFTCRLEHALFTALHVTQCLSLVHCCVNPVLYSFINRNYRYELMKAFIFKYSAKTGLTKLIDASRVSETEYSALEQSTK
# T9 sequence (P25106 whole entry): as above
# T11 sequence (P70658 whole entry): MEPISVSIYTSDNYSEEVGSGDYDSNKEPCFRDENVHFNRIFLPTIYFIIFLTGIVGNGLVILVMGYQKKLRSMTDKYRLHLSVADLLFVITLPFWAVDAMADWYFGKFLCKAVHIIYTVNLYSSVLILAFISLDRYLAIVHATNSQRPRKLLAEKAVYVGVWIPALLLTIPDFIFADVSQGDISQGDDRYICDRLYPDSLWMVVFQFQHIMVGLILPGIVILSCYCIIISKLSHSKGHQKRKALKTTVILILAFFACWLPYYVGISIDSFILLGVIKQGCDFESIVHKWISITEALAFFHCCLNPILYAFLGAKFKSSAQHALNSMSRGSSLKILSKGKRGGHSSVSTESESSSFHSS
# T12 sequence (P61073 whole entry): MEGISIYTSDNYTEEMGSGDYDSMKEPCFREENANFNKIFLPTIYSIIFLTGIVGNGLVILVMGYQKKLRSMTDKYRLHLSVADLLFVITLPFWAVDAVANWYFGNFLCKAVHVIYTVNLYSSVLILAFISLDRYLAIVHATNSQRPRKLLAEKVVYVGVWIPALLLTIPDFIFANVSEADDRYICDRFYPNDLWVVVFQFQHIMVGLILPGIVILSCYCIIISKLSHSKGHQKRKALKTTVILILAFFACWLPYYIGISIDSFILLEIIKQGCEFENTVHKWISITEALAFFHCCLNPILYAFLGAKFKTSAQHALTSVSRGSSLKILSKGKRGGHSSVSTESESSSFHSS
# T10 sequence (P56485 whole entry): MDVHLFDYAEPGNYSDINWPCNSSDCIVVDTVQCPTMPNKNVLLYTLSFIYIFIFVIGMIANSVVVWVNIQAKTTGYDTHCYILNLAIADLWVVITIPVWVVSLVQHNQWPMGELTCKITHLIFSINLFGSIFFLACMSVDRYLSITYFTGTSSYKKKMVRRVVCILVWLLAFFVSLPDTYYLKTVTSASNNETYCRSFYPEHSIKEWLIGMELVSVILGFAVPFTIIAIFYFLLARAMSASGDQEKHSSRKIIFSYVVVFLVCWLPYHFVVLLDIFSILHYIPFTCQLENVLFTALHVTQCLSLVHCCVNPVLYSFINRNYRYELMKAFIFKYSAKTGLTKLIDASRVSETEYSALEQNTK
molecule,measurement,setting,value
"MIG: monokine induced by gamma interferon, CXCR3 ligand",inhibition of 125I I-TAC binding to MCF-7 by cold chemokine competitor (in words),[1]; MCF-7 cells,not inhibited
same,effect of pre-incubation with excess chemokine on 125I I-TAC binding to MCF-7,"[1]; excess SDF-1β ~90 nM or excess MIG ~175 nM, 30 min at 4° C.",did not effect this binding profile
CKβ8 (25-99) (from UniProt P55773 46-120),IC50,[2],250 pM
same,IC50,[3],270 pM
same,IC50,[4],20 pM
same,IC50,[5],1340 pM
"I-TAC: recombinant human chemokine, reported CXCR3 ligand","DisplaceMax displacement of 125I SDF-1α on MCF-7, affinity class",[6],high affinity
same,competition with / inhibition of 125I SDF-1α binding on MCF-7 (in words),[7],does compete
same,competition with radiolabeled human-SDF-1 for binding to E13 fetal liver cells,[8],able to compete
"SDF-1: CXC chemokine, ligand for CXCR4, isoform not stated",cell invasion,[9],induced cell invasion
same,recovery from serum starvation induced apoptosis,[10],able to recover from the starvation
same,intracellular calcium mobilization in E17 fetal liver cells,[11],mobilizing intracellular calcium
B1,"Ca2+ mobilization in HEK293-CCR1, THP-1 and monocytes",[12],able to mobilize Ca2+
same,Ca2+ mobilization in neutrophils,[12],do not mobilize Ca2+
B2,"DisplaceMax displacement of 125I SDF-1α on CEM-NKr, affinity class",[13],potential moderate affinity
B3,"induction of cell migration, neutrophils",[14]; CCR1 expressed on neutrophils,does not induce cell migration
same,"induction of CCR1 mediated cell migration, THP-1 cells, monocytes and immature DC","[14]; THP-1 cells, monocytes and immature DC",can induce CCR1 mediated cell migration
same,IC50,[15],3900 pM
same,IC50,[16],64000 pM
same,IC50,[17],10300 pM
same,IC50,[18],6300 pM
same,"Ca2+ mobilization in HEK293-CCR1, THP-1 and monocytes",[12],able to mobilize Ca2+
same,Ca2+ mobilization in neutrophils,[12],do not mobilize Ca2+
B4,IC50,[19],1000 pM
same,IC50,[20],1000 pM
B5,IC50,[17],< 200 pM
same,IC50,[18],< 200 pM
same,IC50,[21],20 pM
same,IC50,[22],< 200 pM
same,"Ca2+ mobilization in HEK293-CCR1, THP-1 and monocytes",[12],able to mobilize Ca2+
same,Ca2+ mobilization in neutrophils,[12],do not mobilize Ca2+
B6,IC50,[17],270 pM
same,IC50,[18],170 pM
same,IC50,[21],150 pM
same,IC50,[22],540 pM
B7,"Ca2+ mobilization in HEK293-CCR1, THP-1 and monocytes",[12],able to mobilize Ca2+
same,Ca2+ mobilization in neutrophils,[12],do not mobilize Ca2+
B8,"DisplaceMax displacement of 125I SDF-1α on MCF-7, affinity class",[6],high affinity
